The assay deals with human lymphotoxin (TNFβ) (human) (UniProt P01374). Description: cell-based or functional assay.
human lymphotoxin (TNFβ) (human), sequence (P01374 35-205 limits assumed): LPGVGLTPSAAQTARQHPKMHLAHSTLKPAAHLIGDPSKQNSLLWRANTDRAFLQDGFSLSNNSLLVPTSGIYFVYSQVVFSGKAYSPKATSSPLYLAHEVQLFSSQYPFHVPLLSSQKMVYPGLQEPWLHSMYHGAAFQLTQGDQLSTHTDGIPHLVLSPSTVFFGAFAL

On to “p75P-sf2 TNF receptor/IgG1 fusion protein (from UniProt P20333 23-204) (Fc fusion)”, for which the concentration required to half-inhibit human TNFβ at 2 pM, WEHI 164 cytotoxicity assay worked out at 31 pM.

Values taken from US20060140946A1.
